Data as given in IntAct's records for PubMed 18256029.

B1: Programmed cell death protein 6 (Homo sapiens), O75340 (parent)
chain: MAAYSYRPGPGAGPGPAAGAALPDQSFLWNVFQRVDKDRSGVISDTELQQALSNGTWTPFNPVTVRSIISMFDRENKAGVNFSEFTGVWKYITDWQNVFRTYDRDNSGMIDKNELKQALSGFGYRLSDQFHDILIRKFDRQGRGQIAFDDFIQGCIVLQRLTDIFRRYDTDQDGWIQVSYEQYLSMVFSIV
partner: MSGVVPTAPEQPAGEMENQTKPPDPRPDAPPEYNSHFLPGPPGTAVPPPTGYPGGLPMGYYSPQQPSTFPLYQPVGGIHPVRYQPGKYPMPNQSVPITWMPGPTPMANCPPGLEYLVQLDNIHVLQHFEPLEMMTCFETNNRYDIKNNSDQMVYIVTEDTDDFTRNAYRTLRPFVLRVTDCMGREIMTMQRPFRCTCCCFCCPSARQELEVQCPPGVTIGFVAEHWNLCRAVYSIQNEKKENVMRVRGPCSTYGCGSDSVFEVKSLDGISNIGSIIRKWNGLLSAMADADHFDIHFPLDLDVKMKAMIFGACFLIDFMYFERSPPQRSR
B2: Programmed cell death protein 6 (Homo sapiens), O75340 (parent)
chain: B1 chain
B3: Programmed cell death protein 6 (Homo sapiens), O75340 (parent)
chain: B1 chain
partner: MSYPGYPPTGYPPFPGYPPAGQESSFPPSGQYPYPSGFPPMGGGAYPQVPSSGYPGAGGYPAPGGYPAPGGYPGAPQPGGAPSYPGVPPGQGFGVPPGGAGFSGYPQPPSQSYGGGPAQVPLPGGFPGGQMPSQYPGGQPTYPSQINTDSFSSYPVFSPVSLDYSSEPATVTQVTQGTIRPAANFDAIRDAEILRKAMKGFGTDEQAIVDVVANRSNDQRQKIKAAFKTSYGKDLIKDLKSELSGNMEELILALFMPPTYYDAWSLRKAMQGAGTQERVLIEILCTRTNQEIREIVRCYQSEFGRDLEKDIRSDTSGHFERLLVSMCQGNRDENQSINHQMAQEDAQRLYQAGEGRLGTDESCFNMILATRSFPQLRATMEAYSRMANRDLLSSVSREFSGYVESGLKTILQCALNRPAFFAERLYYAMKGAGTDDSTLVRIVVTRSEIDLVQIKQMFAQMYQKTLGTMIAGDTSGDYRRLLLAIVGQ
B4: Programmed cell death protein 6 (Homo sapiens), O75340 (parent)
chain: B1 chain
partner: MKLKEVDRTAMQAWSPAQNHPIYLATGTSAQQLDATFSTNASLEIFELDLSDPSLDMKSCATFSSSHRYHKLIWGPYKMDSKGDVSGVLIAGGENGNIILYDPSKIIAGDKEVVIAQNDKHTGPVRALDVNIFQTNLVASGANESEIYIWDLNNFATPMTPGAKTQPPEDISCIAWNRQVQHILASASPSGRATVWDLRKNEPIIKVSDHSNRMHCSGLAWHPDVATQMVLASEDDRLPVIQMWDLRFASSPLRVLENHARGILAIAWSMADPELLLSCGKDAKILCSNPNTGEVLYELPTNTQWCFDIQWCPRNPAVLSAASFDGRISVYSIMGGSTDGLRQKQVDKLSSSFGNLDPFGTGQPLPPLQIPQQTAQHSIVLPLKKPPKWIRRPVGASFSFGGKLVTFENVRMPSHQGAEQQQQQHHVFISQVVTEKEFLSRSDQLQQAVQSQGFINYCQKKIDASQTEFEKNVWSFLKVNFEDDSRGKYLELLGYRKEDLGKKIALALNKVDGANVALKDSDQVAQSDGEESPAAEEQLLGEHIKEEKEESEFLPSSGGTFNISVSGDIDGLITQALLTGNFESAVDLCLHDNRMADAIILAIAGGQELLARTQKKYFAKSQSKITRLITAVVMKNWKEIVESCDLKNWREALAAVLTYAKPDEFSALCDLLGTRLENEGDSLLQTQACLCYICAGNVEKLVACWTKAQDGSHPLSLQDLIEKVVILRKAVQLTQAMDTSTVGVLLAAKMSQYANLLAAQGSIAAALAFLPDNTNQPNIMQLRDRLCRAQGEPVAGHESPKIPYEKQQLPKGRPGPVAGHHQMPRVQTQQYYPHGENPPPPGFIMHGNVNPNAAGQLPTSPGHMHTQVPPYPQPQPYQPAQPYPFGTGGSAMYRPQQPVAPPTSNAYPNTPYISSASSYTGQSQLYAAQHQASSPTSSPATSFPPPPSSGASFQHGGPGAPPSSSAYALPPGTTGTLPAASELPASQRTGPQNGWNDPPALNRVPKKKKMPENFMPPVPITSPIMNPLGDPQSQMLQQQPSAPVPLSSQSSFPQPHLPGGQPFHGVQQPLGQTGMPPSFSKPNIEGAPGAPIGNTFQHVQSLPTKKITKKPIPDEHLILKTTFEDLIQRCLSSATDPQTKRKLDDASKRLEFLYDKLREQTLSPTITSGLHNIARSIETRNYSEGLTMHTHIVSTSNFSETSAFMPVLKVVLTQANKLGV

Variants of: B1
Settings: with pls4_human PLSCR4, Q9NRQ2

How did the “effect of a mutation on the interaction” value turn out when E47A;E114A was run?
Its value is “decreasing interaction”.

Variants of: B2
Settings: with pls3_human PLSCR3, Q9NRY6
Sequence of pls3_human PLSCR3, Q9NRY6 (Q9NRY6 whole entry): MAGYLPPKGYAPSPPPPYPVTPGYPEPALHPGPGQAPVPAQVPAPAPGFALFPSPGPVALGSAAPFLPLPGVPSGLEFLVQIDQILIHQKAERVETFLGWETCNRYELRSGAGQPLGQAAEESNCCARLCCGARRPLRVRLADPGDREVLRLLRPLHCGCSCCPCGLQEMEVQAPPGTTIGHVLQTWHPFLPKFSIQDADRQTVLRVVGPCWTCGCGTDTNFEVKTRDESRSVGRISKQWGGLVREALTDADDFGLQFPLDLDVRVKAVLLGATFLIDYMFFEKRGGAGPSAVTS

W57A was tested. Which “effect of a mutation on the interaction” value did it give?
The value was “decreasing interaction”.

Which “effect of a mutation on the interaction” value does the source give for Y91A here?
The value was “disrupting interaction”.

With Y180A as the variant, how does the “effect of a mutation on the interaction” value read?
Its value is “disrupting interaction”.

For W95A, which “effect of a mutation on the interaction” value is on record?
The value was “disrupting interaction”.

With F60A as the variant, how does the “effect of a mutation on the interaction” value read?
Its value is “disrupting interaction”.

Variants of: B2
Settings: with pdc6i_human PDCD6IP

How did the “effect of a mutation on the interaction” value turn out when W57A was run?
The value was “decreasing interaction”.

Y91A was tested. Which “effect of a mutation on the interaction” value did it give?
The value was “disrupting interaction”.

Y180A was tested. Which “effect of a mutation on the interaction” value did it give?
The value was “disrupting interaction”.

For W95A, which “effect of a mutation on the interaction” value is on record?
Its value is “disrupting interaction”.

F60A was tested. Which “effect of a mutation on the interaction” value did it give?
Its value is “disrupting interaction”.

Variants of: B2
Settings: with anx11_human ANXA11, P50995
Sequence of anx11_human ANXA11, P50995 (P50995 whole entry): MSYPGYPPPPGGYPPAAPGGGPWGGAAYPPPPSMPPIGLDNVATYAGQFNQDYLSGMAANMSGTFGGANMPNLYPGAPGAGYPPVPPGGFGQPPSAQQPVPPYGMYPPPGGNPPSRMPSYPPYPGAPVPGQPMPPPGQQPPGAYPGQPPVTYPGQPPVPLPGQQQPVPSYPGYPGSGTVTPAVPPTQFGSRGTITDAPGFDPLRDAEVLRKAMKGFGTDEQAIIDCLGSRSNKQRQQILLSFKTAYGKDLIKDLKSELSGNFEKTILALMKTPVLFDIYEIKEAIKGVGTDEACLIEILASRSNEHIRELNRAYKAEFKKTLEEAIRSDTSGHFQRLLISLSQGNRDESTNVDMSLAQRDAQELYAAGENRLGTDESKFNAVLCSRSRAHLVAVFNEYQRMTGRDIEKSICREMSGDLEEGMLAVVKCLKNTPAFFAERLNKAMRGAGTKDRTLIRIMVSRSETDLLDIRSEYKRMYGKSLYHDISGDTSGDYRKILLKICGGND

With W57A as the variant, how does the “effect of a mutation on the interaction” value read?
Its value is “decreasing interaction”.

Y91A was tested. Which “effect of a mutation on the interaction” value did it give?
The value was “disrupting interaction”.

For Y180A, which “effect of a mutation on the interaction” value is on record?
Its value is “disrupting interaction”.

Which “effect of a mutation on the interaction” value does the source give for W95A here?
Its value is “disrupting interaction”.

Which “effect of a mutation on the interaction” value does the source give for F60A here?
Its value is “disrupting interaction”.

Variants of: B2
Settings: with pls3_human PLSCR3, Q9NRY6
Remark: another data set of the same source

E47A;E114A was tested. Which “effect of a mutation on the interaction” value did it give?
The value was “decreasing interaction”.

Variants of: B2
Settings: with ts101_human TSG101, Q99816
Sequence of ts101_human TSG101, Q99816 (Q99816 whole entry): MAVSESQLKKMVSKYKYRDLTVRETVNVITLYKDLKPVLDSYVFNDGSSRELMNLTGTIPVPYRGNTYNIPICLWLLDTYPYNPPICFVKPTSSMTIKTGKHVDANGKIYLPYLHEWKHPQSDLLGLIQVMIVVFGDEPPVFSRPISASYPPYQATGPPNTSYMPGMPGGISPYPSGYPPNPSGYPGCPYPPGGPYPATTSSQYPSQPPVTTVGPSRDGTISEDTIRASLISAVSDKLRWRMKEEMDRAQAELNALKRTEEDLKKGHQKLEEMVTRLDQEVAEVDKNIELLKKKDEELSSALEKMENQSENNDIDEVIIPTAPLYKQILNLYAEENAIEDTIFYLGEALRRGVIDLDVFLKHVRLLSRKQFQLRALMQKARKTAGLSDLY

Which “effect of a mutation on the interaction” value does the source give for Y180A here?
Its value is “disrupting interaction”.

For W95A, which “effect of a mutation on the interaction” value is on record?
The value was “disrupting interaction”.

Variants of: B3
Settings: with anxa7_human ANXA7, P20073

F60A was tested. Which “effect of a mutation on the interaction” value did it give?
The value was “disrupting interaction”.

How did the “effect of a mutation on the interaction” value turn out when Y91A was run?
The value was “disrupting interaction”.

How did the “effect of a mutation on the interaction” value turn out when Y180A was run?
The value was “disrupting interaction”.

How did the “effect of a mutation on the interaction” value turn out when W95A was run?
The value was “disrupting interaction”.

How did the “effect of a mutation on the interaction” value turn out when W57A was run?
The value was “decreasing interaction”.

Variants of: B4
Settings: with sc31a_human SEC31A

Which “effect of a mutation on the interaction” value does the source give for F60A here?
The value was “disrupting interaction”.
